The record followed here is the RNAGym collection of RNA variant scans (doi:10.7554/elife.80360).

B1: CPEB3 Ribozyme (parent)
chain: GGGGGCCACAGCAGAAGCGUUCACGUCGCGGCCCCUGUCAGAUUCUGGUGAAUCUGCGAAUUCUGCUGU

In this series the parent is B1. The series can be described thus: self-cleavage, relative activity (ratio to wild type); higher = more cleavage; co-transcriptional.
For the variant GGGGGCCACAGCAGAAGCGUUCAUGUCGCGGCCCCUGUCAGAUUCUCGUGAAUCUGCGAAUUCUGCUGU [C24U G47C], the self-cleavage was 0.915.

As for GGGGGCCACAGCAGAAGCGUUCACAUCGCGGCCCCUGUCGGAUUCUGGUGAAUCUGCGAAUUCUGCUGU [G25A A40G], the self-cleavage turned out to be 0.172.

With GGGGGCCACAGCAGAAGCGUUCAUGUCGCGGCCCCUGUCAGAUUCUGGUGAAUCUGCGAAUUCUGCAGU [C24U U67A], the self-cleavage amounted to 0.862.

Turning to GGGGGCCACAGCAGAAGCGUUCAUGUCGCGGCCCCUGGCAGAUUCUGGUGAAUCUGCGAAUUCUGCUGU [C24U U38G], the self-cleavage came out at 0.166.

With GGGGGCCACAGCAGAAGCGUUCAUGUCGCGGUCCCUGUCAGAUUCUGGUGAAUCUGCGAAUUCUGCUGU [C24U C32U], the self-cleavage was 0.805.

On to GGGGGCCACAGCAGAAGCGUUCAGGUCGCGGCCCCUGUCAGAUUCUGGUGAAUCUGCUAAUUCUGCUGU [C24G G58U], for which the self-cleavage is 0.387.

Turning to GGGGGCCACAGCAGAAGCGUUCAGGUCGCGGCCCCUGUCAGAUUCUGGUGAAUCUCCGAAUUCUGCUGU [C24G G56C], the self-cleavage is 0.245.

As to GGGGGCCACAGCAGAAGCGUUCAUGUCGCGGCCCCUGUCAGAUUCUGGUGAAUCUGCGAUUUCUGCUGU [C24U A60U], the self-cleavage was found to be 0.299.

As to GGGGGCCACAGCAGAAGCGUUCAUGUCGCGGCCCCUGUCAGAUUCUGGUGAAUCUGCGAGUUCUGCUGU [C24U A60G], the self-cleavage came out at 0.464.

Regarding GGGGGCCACAGCAGAAGCGUUCAUGUCGCGGCCCCUAUCAGAUUCUGGUGAAUCUGCGAAUUCUGCUGU [C24U G37A], the self-cleavage was 0.167.

For GGGGGCCACAGCAGAAGCGUUCAUGUCGCGGCCCCUCUCAGAUUCUGGUGAAUCUGCGAAUUCUGCUGU [C24U G37C], the self-cleavage is 0.223.

In the case of GGGGGCCACAGCAGAAGCGUUCAUGUCGCGGCCCCUGUCAGAUUCUGGUGAAUCUGCAAAUUCUGCUGU [C24U G58A], the self-cleavage is 0.516.

As for GGGGGCCACAGCAGAAGCGUUCAUGUCGCGGCCCCUGUCAGAUUCUGGUGAAUCUGCGUAUUCUGCUGU [C24U A59U], the self-cleavage was 0.414.

GGGGGCCACAGCAGAAGCGUUCAUGUCGCGGCCCCUGUCAGAUUUUGGUGAAUCUGCGAAUUCUGCUGU [C24U C45U]: the self-cleavage was found to be 0.829.

In the case of GGGGGCCACAGCAGAAGCGUUCAUGUCGCGGCCCCUGUCAGCUUCUGGUGAAUCUGCGAAUUCUGCUGU [C24U A42C], the self-cleavage was determined as 0.673.

Regarding GGGGGCCACAGCAGAAGCGUUCAUGUCGCGGCCCCUGUCAGAUUCUGGUGAAACUGCGAAUUCUGCUGU [C24U U53A], the self-cleavage was 0.64.

Consider GGGGGCCACAGCAGAAGCGUUCAUGUCGCGGCCCCUGUCAGAUUCUGGUGAAGCUGCGAAUUCUGCUGU [C24U U53G], for which the self-cleavage was 0.482.

As for GGGGGCCACAGCAGAAGCGUUCACAUCGCGGACCCUGUCAGAUUCUGGUGAAUCUGCGAAUUCUGCUGU [G25A C32A], the self-cleavage was found to be 0.22.

As to GGGGGCCACAGCAGAAGCGUUCAUGUCGCGGCCCCUGUCAGAUUCUGGUGAAUCUGCGAAUUAUGCUGU [C24U C63A], the self-cleavage was 0.391.

With GGGGGCCACAGCAGAAGCGUUCAUGUCGCGGCCCCUGUCAGAUUCUGGUGAAUCUGCGAAUUUUGCUGU [C24U C63U], the self-cleavage came out at 0.719.

Consider GGGGGCCACAGCAGAAGCGUUCAGGUCGCGGCCCCUGUCAGAUUCUGGUGAAUCCGCGAAUUCUGCUGU [C24G U55C], for which the self-cleavage amounted to 0.292.

As for GGGGGCCACAGCAGAAGCGUUCAGGUCGCGGCCCCUGUCAGAUUCUGGUGAAUCUGCGAAUCCUGCUGU [C24G U62C], the self-cleavage stood at 0.148.

In the case of GGGGGCCACAGCAGAAGCGUUCAUGUCGCGGCCCCUGUCAGAUUCUGGUGAAUCUGCGAAUUCUCCUGU [C24U G65C], the self-cleavage is 0.353.

As for GGGGGCCACAGCAGAAGCGUUCAGGUCGCGGCCCCUGUCAGAUUCUGGUGAAUCUGCGAAUUCUGCUGA [C24G U69A], the self-cleavage came out at 0.509.

In the case of GGGGGCCACAGCAGAAGCGUUCAGGUCGCGGCCCCUGUCAGAUUCUGGUGAAUCUGCGAAUUCUGCUGG [C24G U69G], the self-cleavage is 0.63.

For the variant GGGGGCCACAGCAGAAGCGUUCAGGUCGCGGCCCCUGUCAGAUUCUGGUGAAUCUGCGAAUUCUCCUGU [C24G G65C], the self-cleavage was determined as 0.242.

In the case of GGGGGCCACAGCAGAAGCGUUCAGGUCGCGGCCCCUGUCAGAUUCUGGUGAAUCUGCGAAUUCUUCUGU [C24G G65U], the self-cleavage came out at 0.243.

GGGGGCCACAGCAGAAGCGUUCAUGUCGCGGCCCCUGUCAGAUUCUGGUGAGUCUGCGAAUUCUGCUGU [C24U A52G]: the self-cleavage turned out to be 0.819.

Regarding GGGGGCCACAGCAGAAGCGUUCAUGUCGCGGCCCCUGUCAGAUUCUGGUGAUUCUGCGAAUUCUGCUGU [C24U A52U], the self-cleavage stood at 0.81.

As for GGGGGCCACAGCAGAAGCGUUCAGGUCGCGGCCCCUGACAGAUUCUGGUGAAUCUGCGAAUUCUGCUGU [C24G U38A], the self-cleavage amounted to 0.177.

Take GGGGGCCACAGCAGAAGCGUUCAUGUCGCGGCCCCUGUCAGAUUCUGGUGAAUCUGCGAAUUCGGCUGU [C24U U64G]: the self-cleavage was 0.466.

As to GGGGGCCACAGCAGAAGCGUUCACAUCGCGGCCGCUGUCAGAUUCUGGUGAAUCUGCGAAUUCUGCUGU [G25A C34G], the self-cleavage was found to be 0.19.

Regarding GGGGGCCACAGCAGAAGCGUUCAUGUCGCGGCCCCUGUCAGAUUCUGGUGAAUCUGCGAAUGCUGCUGU [C24U U62G], the self-cleavage stood at 0.386.

Take GGGGGCCACAGCAGAAGCGUUCAUGUCGCGGCCCCUGUCACAUUCUGGUGAAUCUGCGAAUUCUGCUGU [C24U G41C]: the self-cleavage is 0.303.

Take GGGGGCCACAGCAGAAGCGUUCAUGUCGCGGCCCCUGUCCGAUUCUGGUGAAUCUGCGAAUUCUGCUGU [C24U A40C]: the self-cleavage turned out to be 0.228.

As for GGGGGCCACAGCAGAAGCGUUCACAUCGCGGCCCCUGUCAGAUUCUGGUGCAUCUGCGAAUUCUGCUGU [G25A A51C], the self-cleavage stood at 0.209.

Consider GGGGGCCACAGCAGAAGCGUUCAGGUCGCGGCCCCUGUCAGAGUCUGGUGAAUCUGCGAAUUCUGCUGU [C24G U43G], for which the self-cleavage worked out at 0.249.

As to GGGGGCCACAGCAGAAGCGUUCAUGUCGCGGCCCCUGUCAGAUUCUGGUGAAUCGGCGAAUUCUGCUGU [C24U U55G], the self-cleavage came to 0.367.

As for GGGGGCCACAGCAGAAGCGUUCAUGUCGCGGCCCCUGUCAGAUUCUGGUGAAUCAGCGAAUUCUGCUGU [C24U U55A], the self-cleavage came out at 0.651.
